Here are results for 1 molecule from patent US20170035877A1 (published 2017).

The target in this assay is soluble four-domain CD4 (UniProt P01730 26-390). In words: ITC.

B1: 16055 SOSIP.663 trimer, negatively selected (flow-through of the GE136 column) (other)
chain 1: not shown
chain 2: AVGLGAVIFGFLGAAGSTMGAASITLTVQARQLLSGIVQQQSNLLKAPEAQQHLLQLTVWGIKQLQTRVLAIERYLKDQQLLGIWGCSGKLICCTAVPWNSSWSNKSHDEIWGNMTWMQWDREISNYTNTIYRLLEDSQNQQEQNEKDLLAL
The molecule B1 returned a Kd of 6 nM.
